From doi:10.1101/2021.01.05.425367 (bioRxiv, 2021)

Target: T1, LolB-Strep (E. coli, UniProt P61320 22-207)
T1 sequence (looked up): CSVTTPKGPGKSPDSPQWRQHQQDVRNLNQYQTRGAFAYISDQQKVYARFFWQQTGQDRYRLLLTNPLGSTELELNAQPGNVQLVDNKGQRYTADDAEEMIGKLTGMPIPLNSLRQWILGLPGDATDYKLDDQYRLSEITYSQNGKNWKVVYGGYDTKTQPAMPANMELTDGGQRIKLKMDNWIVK
Experiment: pull-down

binding result: binds
B1: wild-type RcsF (natural protein, E. coli, UniProt P69411 16-134, looked up)
chain: CSMLSRSPVEPVQSTAPQPKAEPAKPKAPRATPVRIYTNAEELVGKPFRDLGEVSGDSCQASNQDSPPSIPTARKRMQINASKMKANAVLLHSCEVTSGTPGCYRQAVCIGSALNITAK
modifications: acylated (lipidated) N-terminal cysteine, the first residue of the mature lipoprotein
